Source: patent publication US20230220080A1

Target: B lymphoma cell lines Raji or Daudi (CD20 and CD22)
Experiment: FACS on Raji cells, Alexa Fluor 488 anti-human IgG1, MFI; binder is a 1:1 mixture

In the case of Epratuzumab/ Ofatumumab (1:1), the EC50 is reported as 3.25 nM.
